From patent publication US20030143647A1 (UNIVERSITY OF PITTSBURGH OF THE COMMONWEALTH SYSTEM OF …, published 2003)

B1: Cyclin B1 peptide from the tumor, SEQ ID NO: 1 (AGYLMELCV) (peptide)
peptide: AGYLMELCV
notes: Synthesized by F-moc chemistry, with leucine at positions 4 and 7; also called P1
B2: Cyclin B1 peptide from the tumor, SEQ ID NO: 2 (AGYLMELCM) (peptide)
peptide: AGYLMELCM
notes: Synthesized by F-moc chemistry, with leucine at positions 4 and 7; also called P2
B3: Cyclin B1 peptide from the tumor, SEQ ID NO: 3 (AGYLMELCF) (peptide)
peptide: AGYLMELCF
notes: Synthesized by F-moc chemistry, with leucine at positions 4 and 7; also called P3
B4: Cyclin B1 peptide from the tumor, SEQ ID NO: 4 (AGYLMELCC) (peptide)
peptide: AGYLMELCC
notes: also called P4
B5: Cyclin B1 peptide from the tumor, SEQ ID NO: 5 (AGYLMELCMA) (peptide)
peptide: AGYLMELCMA
notes: Synthesized by F-moc chemistry, with leucine at positions 4 and 7
B6: Cyclin B1 peptide from the tumor, SEQ ID NO: 6 (AGYLMELCFA) (peptide)
peptide: AGYLMELCFA
notes: as for B5
B7: Human cyclin B1 peptide from the database, SEQ ID NO: 7 (AKYLMELTM) (peptide)
peptide: AKYLMELTM
notes: also called HeLa-derived cyclin B1 peptide
B8: Human cyclin B1 peptide from the database, SEQ ID NO: 8 (AKYLMELTML) (peptide)
peptide: AKYLMELTML
notes: as for B7

Each binder was assayed against T1, HLA-A2.1 molecules on T2 cells (human) (assay: HLA class I stabilization assay on T2 cells, MA2.1 staining, flow cytometry).
T1 construct: MHC class I molecule on the surface of T2 cells; also called HLA-A*0201
Description: HLA Class I stabilization assays. Peptide-induced stabilization of HLA-A2.1 molecules on T2 cells was done as previously described (Zeh et al., Hum. Immunol., 39(2), 79-86 (1994)). 2×10⁵ T2 cells were incubated with […] of the indicated synthetic peptides in […] human B2m (Calbiochem, La Jolla, Calif.) for 18-20 hours at room temperature. The cells were then stained with the HLA-A2.1-specific antibody, MA2.1, for 45 minutes, washed with FACS Buffer (PBS, 5% FBS, and 0.01% sodium azide), and stained with a secondary FITC-conjugated anti-IgG antibody (Biosource International, Camarillo, Calif.). The cells were fixed in 4% formaldehyde prior to flow cytometry analysis. The negative control consisted of T2 cells without peptide. The positive control consisted of T2 cells loaded with the Flu matrix peptide, […]. Flow cytometric analysis was done using a FACScan flow cytometer (Becton-Dickinson). Experimental results are depicted as X-Fold increase=(Mean Fluorescent Intensity of T2 cells loaded with peptide/Mean Fluorescent Intensity of T2 cells with no peptide).
B1 was tested, and the “HLA-A2.1 Binding (X-Fold increase of MFI)” value was 1.6 fold.
B2 was tested, and the “HLA-A2.1 Binding (X-Fold increase of MFI)” value was 1.48 fold.
With B3 the “HLA-A2.1 Binding (X-Fold increase of MFI)” value was 1.42 fold.
For B4, the “HLA-A2.1 Binding (X-Fold increase of MFI)” value was 1.61 fold.
In the case of B5, the “HLA-A2.1 Binding (X-Fold increase of MFI)” value is reported as 1.58 fold.
B6 was tested, and the “HLA-A2.1 Binding (X-Fold increase of MFI)” value was 2.08 fold.
For B7, the “HLA-A2.1 Binding (X-Fold increase of MFI)” value was 2.28 fold.
With B8 the “HLA-A2.1 Binding (X-Fold increase of MFI)” value was 2.25 fold.
